Experimental data taken from patent US20090118194A1, “Measurement of melanocortin peptides and uses thereof” (Auckland UniServices Limited, priority 2002, published 2009).
Entries after “also recorded” stand apart in the source; their conditions may differ.

System: primary rat osteoblasts
Experiment: Primary rat osteoblast proliferation assay ([3H]thymidine incorporation, cell number)
Format: cell-based
From the text: Primary rat osteoblasts were isolated from 20 day fetal rat calvariae. (The use of animals for these studies was approved by the Auckland Animal Ethics Committee.) Calvariae were excised and the frontal and parietal bones, free of suture and periosteal tissue, were collected and sequentially digested using collagenase as previously described (Cornish J, Callon K E, Lin C Q X, Xiao C L, Mulvey T B, Cooper G J S, Reid I R Trifluoroacetate, a contaminant in puritied proteins, inhibits proliferation of osteoblasts and chondrocytes. Amer J Physiol Endocrinol Metab 277: E779-E783, 1999). Primary rat osteoblasts were grown in DMEM supplemented with 10% FCS, 50 U/ml penicillin and 50 μg/ml streptomycin. After 48 hour, the medium was changed to MEM. Confluence was reached within 5-6 days, at which time the cells were subcultured into 10 cm culture plates for RNA preparation or 24 well plates for proliferation assays.
Primary rat osteoblasts were subcultured into 24 well plates at a density of 5×10^4 cells/ml/well in MEM, 5% FCS for 24 hours. Cells were growth arrested in MEM, 0.1% bovine serum albumin (BSA) for 24 hour and then fresh media and experimental compounds were added for a further 24 hours. Cells were pulsed with [^3H]thymidine (0.5 μCi/well) 2 hours before the end of the experimental incubation. The experiment was terminated and both cell numbers and thymidine incorporation were assessed. Cell numbers were analysed by detaching cells from the wells by exposure to trypsin/EDTA (0.05%/0.53 mM) for approximately 5 minutes at 37° C. Counting was performed in a hemocytometer chamber. Results are expressed per well. [^3H]Thymidine incorporation was analysed by washing the cells in MEM followed by the addition of 10% trichloroacetic acid. The precipitate was washed twice with ethnol:ether (3:1) and the wells desiccated at room temperature. The residue was dissolved in 2M KOH at 55° C. for 30 minutes, neutralized with 1M HCl, and an aliquot counted for radioactivity. Results are expressed as dpm per well. Each experiment was performed at least three times using experimental groups consisting of at least six wells.
Data are presented as mean±SEM. The significance of differences between groups was determined using Student's t tests for unpaired data and a 5% significance level. The comparisons to be made in each experiment were specified a priori, so no adjustment for multiple comparisons was necessary. Where several experiments have been shown in one figure, the data are expressed as the ratio of results in treatment groups to those in the control group and the ‘P’ values shown were calculated using the data from the individual experiments, before the data were pooled.

| Molecule | antagonism of α-MSH stimulated [3H] thymidine uptake (10^−7 M against α-MSH 10^−8 M and 10^−7 M, growth arrested primary rat osteoblasts) | thymidine incorporation or cell numbers (proliferation) (growth arrested primary rat osteoblasts, 10^−7 M, alone) | antagonism of α-MSH stimulated osteoblast proliferation (agouti protein 10^−9 M-10^−7 M, primary rat osteoblasts) | thymidine incorporation (growth arrested primary rat osteoblasts, 10^−9-10^−7 M, alone) | additivity with α-MSH stimulated thymidine incorporation (primary rat osteoblasts) |
| --- | --- | --- | --- | --- | --- |
| ACTH1-24: melanocortin peptide purchased from Bachem California (SYSMEHFRWGKPVGKKRRPVKVYP; Corticotropin; UniProt P01189 138-161, looked up, fragment) | inhibited two doses of α-MSH (10^−8 M and 10^−7 M) from stimulating [^3H] thymidine uptake; also recorded: antagonise α-MSH stimulated stimulation of thymidine incorporation | did not stimulate thymidine incorporation or cells numbers; also recorded: no significant effect on osteoblast proliferation |  |  |  |
| agouti protein: recombinant mouse agouti protein, antagonist of melanocortin peptides coupling MC1-R, MC2-R, and MC4-R (protein, UniProt Q03288 23-131, looked up) Agouti-signaling protein: HLALEETLGDDRSLRSNSSMNSLDFSSVSIVALNKKSKKISRKEAEKRKRSSKKKASMKKVARPPPPSPCVATRDSCKPPAPACCDPCASCQCRFFGSACTCRVLNPNC |  |  | did not antagonise α-MSH stimulated osteoblast proliferation | significantly stimulated thymidine incorporation | not additive |
